Test results published in patent publication US20090298167A1 (Pfizer, published 2009).
Residue numbers refer to the chain shown, from its start.

B1: scFv H3 (scFv)
scFv: QVQLQESGPGLVKTSETLSLTCAVSGYSISSGYYWGWIRQPPGKGLEWIGSISHTGNTYYNPPLKSRVTISVDTSKNQFSLKLSSVTAADTAVYYCARFMGFGRPEYWGKGTLVTVSSGGGGSGGGGSGGGGSALSSELTQDPPVSVALGQTVTLTCQGDSLRTYYASWYQQKSGQAPILLLYGKHKRPSGIPDRFSGSTSGDTASLTITGAQAEDEADYYCNSRDSSGNPHVLFGGGTQLTVL
B2: scFv H4 (scFv)
scFv: B1 scFv with F99W, M100L
B3: scFv L25 (scFv)
scFv: B1 scFv with F99G, M100G, F102I, G103S, N223T, S224T, D226S, S227N, S228K
B4: scFv L10 (scFv)
scFv: B1 scFv with F99G, M100G, F102I, G103S, N223I, D226S, S227I, S228Y
B5: scFv L18 (scFv)
scFv: B1 scFv with F99G, M100G, F102I, G103S, N223V, S224T, D226S, S227V, S228K
B6: scFv L2 (scFv)
scFv: B1 scFv with F99G, M100G, F102I, G103S, N223V, S224A, D226S, S227V, S228V
B7: scFv L17 (scFv)
scFv: B1 scFv with F99G, M100G, F102I, G103S, N223S, S224T, D226S, S227R, S228K
B8: scFv L24 (scFv)
scFv: B1 scFv with F99G, M100G, F102I, G103S, N223I, S224A, D226S, S227N, S228K
B9: scFv L11 (scFv)
scFv: B1 scFv with F99G, M100G, F102I, G103S, N223S, D226S, S227R, S228H
B10: scFv L15 (scFv)
scFv: B1 scFv with F99G, M100G, F102I, G103S, N223S, S224T, D226A, S227I, S228H
B11: scFv L23 (scFv)
scFv: B1 scFv with F99G, M100G, F102I, G103S, N223S, S224A, D226S, S227V, S228R
B12: scFv L19 (scFv)
scFv: B1 scFv with F99G, M100G, F102I, G103S, N223V, S224A, D226A, S227V, S228R
B13: scFv H5 (scFv)
scFv: B1 scFv with M100L
B14: scFv L13 (scFv)
scFv: B1 scFv with F99G, M100G, F102I, G103S, N223V, S224T, D226N, S227R, S228Y
B15: scFv L21 (scFv)
scFv: B1 scFv with F99G, M100G, F102I, G103S, N223A, S224T, D226A, S227V, S228R
B16: scFv L6 (scFv)
scFv: B1 scFv with F99G, M100G, F102I, G103S, N223M, D226S, S227I, S228W
B17: scFv L16 (scFv)
scFv: B1 scFv with F99G, M100G, F102I, G103S, N223V, S224T, D226S, S227A, S228K
B18: scFv L9 (scFv)
scFv: B1 scFv with F99G, M100G, F102I, G103S, N223V, S224A, D226S, S227N, S228K
B19: scFv H6 (scFv)
scFv: B1 scFv with M100F
B20: scFv L14 (scFv)
scFv: B1 scFv with F99G, M100G, F102I, G103S, N223M, S224A, D226S, S227R, S228K
B21: scFv L8 (scFv)
scFv: B1 scFv with F99G, M100G, F102I, G103S, N223T, S224T, D226S, S227T, S228Q
B22: scFv L4 (scFv)
scFv: B1 scFv with F99G, M100G, F102I, G103S, N223S, S224T, D226S, S228K
B23: scFv L1 (scFv)
scFv: B1 scFv with F99G, M100G, F102I, G103S, N223A, D226S, S227V
B24: scFv L3 (scFv)
scFv: B1 scFv with F99G, M100G, F102I, G103S, N223V, D226A, S227V, S228V
B25: scFv L20 (scFv)
scFv: B1 scFv with F99G, M100G, F102I, G103S, N223V, D226S, S227A, S228K
B26: scFv L12 (scFv)
scFv: B1 scFv with F99G, M100G, F102I, G103S, N223V, S224A, D226G, S227T, S228R
B27: scFv L5 (scFv)
scFv: B1 scFv with F99G, M100G, F102I, G103S, N223A, D226S, S228K

These binders were tested against human IL-21R expressed on cells (human, UniProt Q9HBE5 20-538) (assay: cell-based or functional assay).
human IL-21R expressed on cells, sequence (Q9HBE5 20-538 limits assumed): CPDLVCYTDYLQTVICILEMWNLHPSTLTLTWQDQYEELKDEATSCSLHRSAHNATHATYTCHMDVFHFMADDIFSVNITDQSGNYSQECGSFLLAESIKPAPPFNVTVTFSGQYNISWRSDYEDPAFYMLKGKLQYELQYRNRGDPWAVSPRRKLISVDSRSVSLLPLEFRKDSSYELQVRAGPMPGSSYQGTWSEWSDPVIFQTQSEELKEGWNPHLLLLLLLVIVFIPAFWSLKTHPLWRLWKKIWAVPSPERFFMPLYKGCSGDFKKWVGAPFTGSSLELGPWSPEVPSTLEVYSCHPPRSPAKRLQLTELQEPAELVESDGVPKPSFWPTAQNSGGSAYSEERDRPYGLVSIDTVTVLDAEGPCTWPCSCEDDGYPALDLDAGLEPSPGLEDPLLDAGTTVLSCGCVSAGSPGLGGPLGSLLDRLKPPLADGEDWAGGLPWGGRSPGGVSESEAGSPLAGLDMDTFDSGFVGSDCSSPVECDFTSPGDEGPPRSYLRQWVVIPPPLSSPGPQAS

IC50 (nM) in Human IL-21R-BaF3 Neutralization Assay [nM]	IC50 (nM) in Human IL-21R-TF1 Neutralization Assay [nM]	Binder
7.7	98.1	B1
3.8	9.3	B2
3.7	33.1	B3
15.1	7	B4
3.7	54.4	B5
3.1	37.5	B6
1.6	60.3	B7
2.4	18.7	B8
4.2	38.3	B9
3.3	30.3	B10
1.5	15.3	B11
4.5	35.3	B12
7.9	178	B13
11	257	B14
9.4	~100	B15
5.9	~150	B16
3.7	67.4	B17
2.8	27.7	B18
13.8	~150	B19
3.2	33.5	B20
4.1	51.3	B21
2.1	~60	B22
3.7	~55	B23
27.6	~7	B24
3.1	57.5	B25
2.6	54.9	B26
2.1	~20	B27

Each binder was assayed against murine IL-21R expressed on cells (murine, UniProt Q9JHX3 20-529) (assay: cell-based or functional assay).
murine IL-21R expressed on cells, sequence (Q9JHX3 20-529 limits assumed): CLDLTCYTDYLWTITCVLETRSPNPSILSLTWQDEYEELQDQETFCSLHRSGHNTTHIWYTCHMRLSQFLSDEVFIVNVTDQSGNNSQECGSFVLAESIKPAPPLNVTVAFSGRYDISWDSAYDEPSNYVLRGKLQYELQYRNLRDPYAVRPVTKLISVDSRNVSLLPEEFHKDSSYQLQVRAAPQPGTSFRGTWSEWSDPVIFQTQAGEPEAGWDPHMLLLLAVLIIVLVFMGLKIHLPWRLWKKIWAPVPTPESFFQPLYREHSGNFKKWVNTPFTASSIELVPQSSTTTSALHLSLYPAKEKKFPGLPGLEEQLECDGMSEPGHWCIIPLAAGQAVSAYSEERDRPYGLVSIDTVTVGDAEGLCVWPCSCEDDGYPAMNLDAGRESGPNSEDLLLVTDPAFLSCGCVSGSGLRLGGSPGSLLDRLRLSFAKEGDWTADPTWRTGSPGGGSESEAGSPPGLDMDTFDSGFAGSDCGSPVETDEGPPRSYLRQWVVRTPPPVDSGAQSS

IC50 (nM) in Murine IL-21R-BaF3 Neutralization Assay [nM]	Binder
25.7	B1
15.6	B3
8.34	B5
2.41	B6
2.66	B7
3.73	B8
10	B9
53.5	B10
13.6	B12
53.7	B13
1.25	B14
162	B15
0.29	B16
4.71	B17
3.61	B18
6.49	B20
715	B21
28.8	B23
13.8	B24
15.4	B25
87.8	B26
38.5	B27
